For data set [1], the target named is T1, RIG-I K788A/R791A K788A;R791A (Homo sapiens) (UniProt O95786).
T1 sequence: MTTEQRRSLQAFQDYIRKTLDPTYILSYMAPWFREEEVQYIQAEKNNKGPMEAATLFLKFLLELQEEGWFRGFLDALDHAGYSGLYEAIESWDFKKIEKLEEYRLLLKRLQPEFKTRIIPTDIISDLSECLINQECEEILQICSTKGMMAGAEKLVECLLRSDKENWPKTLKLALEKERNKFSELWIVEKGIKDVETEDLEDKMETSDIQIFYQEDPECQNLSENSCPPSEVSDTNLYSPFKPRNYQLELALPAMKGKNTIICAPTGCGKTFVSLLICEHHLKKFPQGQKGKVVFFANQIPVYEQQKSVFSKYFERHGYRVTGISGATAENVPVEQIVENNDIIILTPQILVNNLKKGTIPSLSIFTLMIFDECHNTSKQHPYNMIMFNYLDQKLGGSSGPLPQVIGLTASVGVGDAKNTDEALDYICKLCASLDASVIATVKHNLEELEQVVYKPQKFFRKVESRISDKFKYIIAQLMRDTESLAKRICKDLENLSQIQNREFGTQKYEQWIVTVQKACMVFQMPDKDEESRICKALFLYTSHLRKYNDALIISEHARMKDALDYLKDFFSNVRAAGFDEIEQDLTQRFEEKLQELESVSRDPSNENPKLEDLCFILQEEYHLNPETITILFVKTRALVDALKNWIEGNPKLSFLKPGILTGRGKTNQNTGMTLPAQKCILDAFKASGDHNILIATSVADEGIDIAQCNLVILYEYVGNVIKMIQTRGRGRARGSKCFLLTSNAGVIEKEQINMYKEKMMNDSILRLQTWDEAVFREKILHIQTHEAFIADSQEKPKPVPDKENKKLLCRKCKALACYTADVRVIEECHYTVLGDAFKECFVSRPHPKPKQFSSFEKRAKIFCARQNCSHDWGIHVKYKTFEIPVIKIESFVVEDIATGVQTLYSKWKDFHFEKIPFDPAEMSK
In words: fluorescence polarization. To be noted: internal 6-carboxyfluorescein in backbone between U12 and C13 (central tetraloop bases); 25 mM MOPS pH 7.4, 150 mM KCl, 2 mM DTT, 2 mM MgCl2, 0.01% Triton X-100, 1 nM RNA, room temperature, 1 h. On the technique in general: Fluorescence polarisation rises when a labelled molecule tumbles more slowly, as on binding a larger partner.

The target in data set [2] is T2, RIG-I R791A R791A (Homo sapiens) (UniProt O95786).
T2 sequence: T1 sequence with A788K
In words: fluorescence polarization. Particulars: internal 6-carboxyfluorescein in backbone between U12 and C13 (central tetraloop bases); 25 mM MOPS pH 7.4, 150 mM KCl, 2 mM DTT, 2 mM MgCl2, 0.01% Triton X-100, 1 nM RNA, room temperature, 1 h.

Numbering of substitutions follows the chain as printed.

Experimental findings from article PMC4191399 are described below.

As for GGACGUACGUUUCGACGUACGUCC [5'OH10L-F], the Kd – broadly, the free concentration of one partner at which half of the binding sites on the other are occupied at equilibrium, for simple one-to-one binding – came out at 0.166 µM in data set [1] and 0.0507 µM in data set [2].
